From the RNAGym collection of RNA variant scans (doi:10.1073/pnas.2313332121)

B1: TPR t1 (parent)
chain: GACCAAUCUGCCCUCAGAGCUCGAGAACAUCUUCGGAUGCAGAGGAGGCAGGCUUCGGUGGCGCGAUAGCGCCAACGUCCUCAACCUCCAAUGCAUCCCACCACAUGAUGAUGCCUGAAGAGCCUUGGUUUUUUG

Variants of: B1
Assay: polymerase ribozyme fitness, log enrichment relative to wild type (log ratio); higher = more active; in vitro selection for triplet polymerase activity
Procedure, shortened: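 Mutant libraries were PCR-built and transcribed for each subunit of a heterodimeric triplet polymerase ribozyme and selected for one round in triplicate at −7 °C, frozen, before gel excision of extended constructs and streptavidin-bead capture. Input and output libraries were Illumina-sequenced, keeping genotypes with ≥10 input reads and ≥1 read per output. Fitness is a logarithmic ratio of genotype to wild-type enrichment, in base 2, using inverse-variance-weighted replicate averages.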

Variant | polymerase ribozyme fitness (log ratio)
A16G G71C C124A U130A | 0.62
C15A G35C U87A | -5.96
C15A C40U U87C G93C | -3.02
A16G U92C U129C | -3.37
C15G C40G C56A | -3.88
A16C A50U | -4.64
C15U A27C C56G C73U C97U | -6.81
C15A U133C | -1.06
A16G G44U G117A | -3.84
C15U A83C A91G A111G | -2.96
C15U U38G G45A G60C A74U | -4.34
A16G G42U C49A C56U G61A U96G U109G U134A | -5.05
C15U C62U U112G | -0.275
A16U C124U | 0.484
U14C A18G | -4.78
C15A A43U C49U A91U | -3.45
A16C C56A C97G | -5.42
A16C C82G G120C | -1.47
C15U C20A U81G U112G | -6.15
C15G A50C | -2.38
A16C C49A A74C C88A U116C | -3.06

Variant | polymerase ribozyme fitness (log ratio)
C15A G127A | -3.63
C15U G44U G63C A66U G117U G128A | -6.51
C15G A29G C88G U129A | -3.95
U14A G17A C20G C115U | -5.9
C15G U55A C70A A83U C97U U130C | -5.79
A16U G17A C20A C49A C73U | -4.77
A16U A37G G113A | -4.83
C15U G51U G60A | -5.07
A16G G35U C49G C115A A119G A121U | -4.09
U14G G47C C85G G117A | -5.3
U14C G77A | -2.6
C15G G120A | -1.53
C15G U59C C86U U116G | -4.2
C15U C80A | -4.32
C15U A29U C40A A46C C123A | -5.62
A16G G42U C102U C124G | -3.81
U14G G44A C72U C104U | -2.42
U14G C53U U87A | -2.67
C15A A27C U55G | -5.9
A16U C79G | -2.59
U14G A50C C101A | -3.99

Variant | polymerase ribozyme fitness (log ratio)
C15A G71U A90U U106C A118U | -4.15
A16G A27G U32C A50G | -4.47
C15A G60C U116C | -3.39
C15U A43C C70A C123U C124A | -4.89
C15A C20U G48A A91U | -4.59
A16U C124U U129G | 0.0068
A16G U106A | -0.109
C15A C49G C98U | -3.16
C15A C49U G61A | -1.73
C15U A18U C34U A41G G48C U106A A111G C124G | -6.92
U14A G71A U130A | -3.52
U14C G61A G110C | -5.14
A16G U112A A119G | 2.06
U14G C70G U116G | -5.13
C15U U129C | -1.86
C15U U55G G69A | -3.22
C15G G48U A50G G63C U106A U109C | -6.17
C15U U21A U96G A118U | -0.0472
C15U G60A | -0.966
C15U G69U C102A | -1.95
A16U A50C | -2.04

Variant | polymerase ribozyme fitness (log ratio)
C15U G58A | -1.84
A16C C56U A84C C85U A100C | -4.89
C15A C114U | -4.61
A16G U32A A50C C88U C123G U125A | -3.77
C15G C20U C73U U78G A111G | -6.71
A16G G61C C72U U81A U106A U116C | 1.38
C15G G61C A90G U96A | -6.02
A16C G25U A26G | -4.77
C15U C86U | -1.61
A16U C53G U96G U112A G128C | -3.45
A16G A27C C72U C123U | -3.64
A16C C97U A100U | -3.88
C15A C80U A84U | -2.49
U14C U116G G120A U129A | -2.37
C15A G71A A91G U112A G113C | -5.47
C15A C76U A83U C86A | -3.37
C15U G60A C73U U78A G135U | -1.76
C15U G52A U59A A118U | -2.24
U14C G61U A75C A105C | -3.69
C15U G48U A74C G77C | -2.27
